Test [1] concerns the target human IL-6 (as added in the B9 and 7TD1 bioassays) (human) (UniProt P05231). Put plainly: cell-based or functional assay.
The target is the same in test [2].
In test [3] the target is IL-6 surfaces of Table 8 (Bact, euk, cyno), average. As to the kind of experiment: SPR (Biacore), off-rate screen. On the technique in general: In SPR one partner is held on a chip, and binding of the other changes the refractive index at the surface.
The target of test [4] is T1, bacterially produced human IL-6 (human, UniProt P05231 30-212).
T1 construct: also called bactIL-6; prokaryotic IL-6
Put plainly: SPR; periplasmic fraction.
Protocol: (§1) From the washing phase the off-rate (kd) was determined, while from the injection phase the on-rate (ka) was calculated using the concentration and off-rate as parameters.

The target of test [5] is T2, eukaryotically produced human IL-6 (human, UniProt P05231 30-212).
T2 construct: also called eukIL-6; Euk IL-6
Put plainly: SPR; periplasmic fraction.
Protocol: as §1

Another test addresses T3, human IL-6 (human, UniProt P05231 30-212).
T3 construct: Used where the text says only IL-6 or human IL-6 (crystals: rh IL-6 from Immunotools; cell assays) and for values averaged over the bacterial and eukaryotic IL-6 channels; also called interleukin-6; rh IL-6
As to the kind of experiment: SPR; periplasmic fraction; average of the IL-6 channels. More on the design: unit not given here.

For test [6], the target named is T1, bacterially produced human IL-6. Put plainly: SPR; periplasmic fraction; ratio bact to euk IL-6.
Protocol: as §1
For test [7], the target named is human IL-6 (as added in the B9 and 7TD1 bioassays) (human) (UniProt P05231). Put plainly: cell-based or functional assay. The source holds these as a separate data set.
The target in test [8] is T4, eukaryotically produced human IL-6 (human, UniProt P05231 30-212).
T4 construct: Immobilised on the Biacore chip; also called Euk IL-6; EUK IL-6 (3-1)
As to the kind of experiment: SPR (Biacore), purified Fab.

Test [9] concerns the target T5, bacterially produced human IL-6 (human, UniProt P05231 30-212).
T5 construct: Immobilised on the Biacore chip; also called BACT IL-6 (2-1); bactIL-6
As to the kind of experiment: SPR (Biacore), purified Fab.

Test [10] addresses T6, human IL-6 (as added in the B9 and 7TD1 bioassays) (human, UniProt P05231 30-212). Put plainly: cell-based or functional assay.
Test [11] concerns the target T6, human IL-6 (as added in the B9 and 7TD1 …). As to the kind of experiment: cell-based or functional assay. The source holds these as a separate data set.
Test [12] has the same target. Put plainly: cell-based or functional assay. This is another data set of the same source.
Test [13] has as its target T1, bacterially produced human IL-6. Put plainly: SPR; purified Fab; IL-6 coated on CM5 chip.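 Note: dissociation rate taken from the wash phase, association rate fitted over the injection phase with analyte concentration and dissociation rate as inputs.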
Protocol: as §1
Test [14] concerns the target T2, eukaryotically produced human IL-6. Put plainly: SPR; purified Fab; IL-6 coated on CM5 chip.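 Note: dissociation rate taken from the wash phase, association rate fitted over the injection phase with analyte concentration and dissociation rate as inputs.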
Protocol: as §1
Test [15] addresses IL-6 (bact-hIL-6, euk-hIL-6 and bact-cy IL-6; 'average binding' of Table 21). Put plainly: average binding level in the off-rate screen (unit not given; n = 3).
The target of test [16] is T7, bacterially produced cynomolgus monkey IL-6 (cynomolgus monkey, UniProt P79341 28-212, limits assumed).
T7 construct: also called bact-cy IL-6; HIS-cyIL-6
As to the kind of experiment: off-rate of Fab 111A7 variant on bact-cy IL-6 (binding kinetics, SPR presumed; n = 3).

The target of test [17] is T7, bacterially produced cynomolgus monkey …. Put plainly: off-rate of Fab 111A7 variant on bact-cy IL-6 (binding kinetics, SPR presumed; n = 1).
The target in test [18] is IL-6 (bact-hIL-6, euk-hIL-6 and bact-cy IL-6; 'average binding' of Table 21). Put plainly: average binding level in the off-rate screen (unit not given; n = 1).

Numbering of substitutions follows the chain as printed. Values joined by “and” are separate entries in the source; they are usually repeats but may differ in a detail not shown here. Equal entries are not always repeated.

In test [1], “CNTO136 (benchmark anti-IL-6 antibody, humanized variant of CNTO328)” registered an IC50, 7TD1 cells of 0.19 pM and a Potency relative to 68F2, 7TD1 cells of 3.49. Further, the IC50 (read off the curve), B9 cell proliferation in [2] was 0.2 pM.

B1: 55H1 (Fab, V domains shown)
VH: EVQLVESGGGLVQPGGSLRLSCAASGFTFSSYAMSWVRQAPGKGLEWVSRISSGGISTYYADSVKGRFTISRDNAKNTLYLQMNSLKPEDTAVYYCVRYAWGVQWAFDFWGQGTQVTVSS
VL: AQSVVTQPPSVSGSPGKTVTISCAGTSSDVGYGNYVSWYQQLPGMAPKLLIYDVSKRASGIADRFSGSKSGNTASLTISGLQSEDEADYVCASYRRGGTAVFGGGTHLTVLG
With B1, the Average binding (RU) in [3] is 773 RU and 770 RU and 873 RU.

B2: Fab 28B6 (Fab, V domains shown)
VH: QVQLVESGGGLVQPGGSLRLSCAASGFTFSNYYMTWVRQAPGKGLEWVSSIYSFSGDTAYADSVKGRFTISRDNAKNTLYLQMNSLKSEDTAVYYCTRNLGGVVVTTNGYDYWGQGTQVTVSS
VL: DIQLTQSPSSLSASLGDRVTITCQASQSISTELSWYQQKPGQTPKLLIYGASRLQTGVPARFSGSGSGTSFTLTISGLEAEDLATYYCLQDYSWPYSFGSGTRL
notes: Fab; also called 28f3(28B6)
As usually defined, the koff is the first-order rate constant of dissociation. Take B2: the koff turned out to be 7.71e-05 s⁻¹ in test [4] and 3.5e-05 s⁻¹ in [5]. Moreover, the average binding with human IL-6 came to 43. Besides, in test [6], the ratio bact/euk is 1.

B3: B-E8 (IL-6 neutralizing benchmark antibody) (antibody, from another filing, V domains shown)
VH: QVTLKESGPGILKPSQTLSLTCSFSGFSLSTSGMGVGWIRQPSGKGLEWLAHIWWDDDKYYNPSLKSQLTISKDTSRNQVFLKITSVDTADTATYYCARSYDDYLYYALDYWGQGTSVTVSS
VL: DIVMTQSPATLSVTPGDRVSLSCRASQSISDYLHWYQQKSHESPRLLIKSVSQSISGIPSRFSGSGSGSDFTLSINSVEPEDVGVYYCQNGHSFPLTFGAGTKLELK
In [7], B3 yielded an IC 50, B9 cell proliferation of 5.11 pM and a Rel. potency, B9 cells of 0.2. The IC50 (read off the curve), B9 cell proliferation in test [2] was determined as 8 pM.

B4: 61H7 (Fab, V domains shown)
VH: EVQLVESGGGLVQPGGSLRLSCAASGFTFSSYRMYWVRQPPGKGLEWVSAISAGGGSTYYGDSVKGRFTISRDNAKNTVYLQMNSLKPEDTAVYYCANRAGWGMGDYWGQGTQVTVSS
VL: QTVVTQEPSLSVSPGGTVTLTCGLSSGSVTASNYPGWFQQTPGQAPRALIYSTNDRHSGVPSRFSGSISGNKAALTITGAQPEDEADYYCALDIGDITEFGGGTHLTVLG
With B4, the Average binding (RU) in test [3] stood at 635 RU.

B5: Fab 24G3 (Fab, V domains shown)
VH: QLQVVESGGGLVQPGSSLRLSCGASGFTFSSHRMYWVRQPPGKGLEWVSAISSSGVSTYYADSVKGRFTISRDNAKNTVYLQMNSLKPEDTALYYCKRRTWYGGEYDYWGQGTQVTVSS
VL: B4 VL
notes: Fab; also called 28g12(24G3)
As for B5, the koff was 0.000112 s⁻¹ in test [4] and 7.52e-05 s⁻¹ in test [5]. The same molecule showed an average binding with human IL-6 of 46. For the same molecule, the ratio bact/euk in test [6] was 0.96.

B6: 61B7 (Fab, V domains shown)
VH: B4 VH with V2L, R33A, Y35S, P40A, L45P, A50R, A53S, T58A, G61A, V79L
VL: B4 VL
notes: Fab
By Kd is commonly meant the free concentration of one partner at which half of the binding sites on the other are occupied at equilibrium, for simple one-to-one binding. A word on the kon: it is a measure of how fast the partners come together. Consider B6, for which, in test [3], the Average binding (RU) was 597 RU. In [8], this molecule came in with a Kd of 200 pM, a koff of 6.6e-05 s⁻¹ and a kon of 330000 M⁻¹ s⁻¹. In test [9], this molecule returned a Kd of 160 pM, a koff of 5.7e-05 s⁻¹ and a kon of 350000 M⁻¹ s⁻¹.

B7: 129D3 (germlined variant of 68F2), full-length IgG1 (antibody, V domains shown)
VH: EVQLQESGPGLVKPSQTLSLTCTVSGGSITSRYYAWSWIRQPPGKGLEWIGVIDYDGDTYYSPSLKSRVSISWDTSKNQFSLKLSSVTPADTAVYYCARDPDVVTGFHYDYWGQGTMVTVSS
VL: QSALTQPPSVSGTPGQSVTISCAGANNDIGTYAYVSWYQQLPGTAPKLMIYKVTTRASGIPDRFSGSKSGNTASLTISGLQAEDEADYYCASYRNFNNAVFGTGTKLTVL
In the case of B7, the “IC50 (read off the curve), B9 cell proliferation” value in [10] is about 0.06 pM. In test [11], the “IC50, 7TD1 cells (129D3#A1.1)” value worked out at 0.25 pM; the “IC50, 7TD1 cells (129D3U#15.1)” value worked out at 0.23 pM; the “Potency relative to 68F2, 7TD1 cells (129D3#A1.1)” value was 2.65; the “Potency relative to 68F2, 7TD1 cells (129D3U#15.1)” value turned out to be 2.91. Also, in test [12], the “IC50, 7TD1 proliferation assay, exp 22.06” value is 0.791 pM; the “IC50, 7TD1 proliferation assay, exp 29.06” value was 0.574 pM; the “Rel. Potency, 7TD1, exp 29.06” value was found to be 0.98.

B8: Fab 24A3 (Fab, V domains shown)
VH: QVQVQESGGGLVQPGGSLRLSCAASGFTFSNYAMSWVRQAPGKGLEWVSGISFRGGMISYVDSVKGRFTISRDNAKNTLYLQMNSLKPEDTAVYYCAKNSGSSRSNALDAWGQGTLVTVSS
VL: LNFMLTQPPSVSGSPGQKFTIRCTGSFRSDSYVNWYQQLPGTAPKLLINYDDRRVSGVPSRFSGSKSGNSASLTIDGLQAEDEAEYYCSFWDHTFGGHVFGGGTKLTVLG
notes: Fab; also called 28f10(24A3)
For B8, the koff in test [4] is 8.42e-05 s⁻¹; in test [5], 7.6e-05 s⁻¹; in test [13] it was 4.8e-05 s⁻¹; in [14], 0.00011 s⁻¹. Besides, the Kd was 220 pM in [13] and 590 pM in test [14]. Further, the average binding with human IL-6 turned out to be 286. Further, the ratio bact/euk in test [6] stood at 1.2.

B9: Fab 111A7 with the CDR3 methionine changed to Y (Fab, V domains shown)
VH: EVQLLESGGGLVQPGGSLRLSCAASGFTFSSYAMSWVRQAPGKGPEWVSRISAGGGSTYYGDSVKGRFTISRDNSKNTLYLQMNSLRAEDTAVYYCANRAGWGYGDYWGQGTLVTVSS
VL: QTVVTQEPSFSVSPGGTVTLTCGLSSGSVTASNYPGWYQQTPGQAPRALIYSTNDRHSGVPDRFSGSISGNKAALTITGAQAEDEADYYCALDIGDITEFGGGTQLTVL
Turning to B9, the average binding in test [15] is 104. In addition, in test [16], the koff stood at 0.000158 s⁻¹.

B10: Fab 111A7 with the CDR3 methionine changed to D (Fab, V domains shown)
VH: B9 VH with Y104D
VL: B9 VL
B10 had an average binding in test [15] of 112. In test [16], this molecule showed a koff of 0.000234 s⁻¹.

B11: Fab 111A7 with the CDR3 methionine changed to G (Fab, V domains shown)
VH: B9 VH with Y104G
VL: B9 VL
B11 returned an average binding in test [15] of 109. In test [16], this molecule came in with a koff of 0.000205 s⁻¹.

B12: Fab 111A7 with the CDR3 methionine changed to K (Fab, V domains shown)
VH: B9 VH with Y104K
VL: B9 VL
B12 returned a koff in [17] of 0.00417 s⁻¹. The average binding in test [18] turned out to be 81.

B13: Fab 111A7 with the CDR3 methionine changed to F (Fab, V domains shown)
VH: B9 VH with Y104F
VL: B9 VL
The molecule B13 registered a koff in [17] of 0.000203 s⁻¹. The average binding in [18] worked out at 144.

These data come from US20220073604A1 (ARGENX BVBA, published 2022).
